Experimental data taken from patent US10792332B2, “Anti-infective properties of antifreeze protein” (priority 2013, dated 2020).
Where “and” joins values, the source holds several entries; their conditions need not be identical. Identical values can stand only once. Entries after “also recorded” stand apart in the source; their conditions may differ. Ends that are not written are not given here.

Key:
S. aureus [1] = test: Bacterial growth in vitro (OD600); assay type: cell-based, Staphylococcus aureus; settings: 0.1 mg/ml in BHI/G, 37° C., SA113 or USA300 JE2
Method: A stationary culture of S. aureus was diluted to OD600=0.01 in BHI medium and supplemented with 0.2 mg/ml recombinant IAFGP-GST, BSA or PBS as control. Bacterial growth was measured over time at OD600 using a spectrophotometer. Growth curves from 5 independent experiments were pooled±SEM.
A stationary culture of S. aureus SA113 or USA300 JE2 was diluted in BHI/G to OD600=0.01 supplemented with 0.1 mg/ml IAFGP-GST, GST, P1, sP1 or media alone. Following static incubation at 37° C. for 24 h bacterial density was measured at OD600 using a spectrophotometer.

S. aureus [2] = test: Static biofilm assay (safranin stain); assay type: cell-based, Staphylococcus aureus; settings: preliminary data
Method: Biofilm assays were performed as described^38. Briefly, planktonic overnight cultures of S. aureus were diluted in glucose-supplemented tryptic soy broth or brain-heart-infusion broth (1% glucose; TSB/G or BHI/G) to OD600=0.015 and distributed into 96 well plates (Corning, NC). After an 18 h incubation at 37° C. bacterial growth in each well was confirmed by the measurement of OD600 using a spectrophotometer (BioTek, VT). The supernatant was discarded and the wells were washed with water twice. Bacteria associated with the well surface were dried and stained with safranin. The dye was then dissolved in 33% acetid acid and quantified at OD415 nm using a spectrophotometer (BioTek, VT). Bacterial attachment to catheter materials pre-incubated with peptides was investigated. Vialon™ catheters (BD Biosciences, NJ) were incubated for 18 h in 0.1 mg/ml peptides dissolved in PBS, washed with PBS and incubated in bacterial suspensions for 24 h. Following removal of non-adherent bacteria with repeated washing, adherent bacteria and biofilms were dissociated using sonication in PBS. Bacterial titers were quantified by plating serial dilutions on agar plates and were calculated per as CFU per catheter.

[3] = Murine subcutaneous catheter implant model; assay type: in vivo, C57Bl/6 mice; settings: under the conditions used
Method: FIG. 5A depicts bacterial attachment to intravenous catheters that had been incubated in PBS, GST, GST-IAFGP, P2 and P21c before transferring into S. aureus SA113 suspensions. Bacterial attachment was quantified after sonication by plating serial dilutions. Data were pooled from 3 independent experiments (One-Way-ANOVA; *: p<0.05). FIG. 5B presents bacterial attachment to intravenous catheters that had been incubated in PBS, P1 or sP1 and implanted subcutaneously on the dorsal flanks of C57Bl/6 mice. 72 hrs after catheter inoculation with 5×10^5 CFU S. aureus SA113 the catheters were removed and the attached bacteria were quantified by plating serial dilutions. […]
Seven days after catheter inoculation with S. aureus SA113, the catheters were removed, and the attached bacteria were quantified by plating serial dilutions.
(§1) Cecal ligation and puncture surgery was performed as described^26,41 Mice were anesthesized using isoflurane inhalation and the cecum was exteriorized through a peritoneal midline incision. […] Body surface temperature was measured dorsally using an infrared thermometer. A retro-orbital blood sample was taken daily and the cytokine levels of TNF-α, IL-6, IL12b and MCP-1 were measured using enzyme-linked immunosorbent assay (ELISA) kits (eBiosciences, San Diego, Calif.). […] The number of attached bacteria was determined by plating serial dilutions on agar plates.

S. aureus SA113 [4] = test: Bacterial attachment to pre-incubated intravenous catheters in vitro; assay type: cell-based, Staphylococcus aureus
Method: FIG. 5A depicts bacterial attachment to intravenous catheters that had been incubated in PBS, GST, GST-IAFGP, P2 and P21c before transferring into S. aureus SA113 suspensions. Bacterial attachment was quantified after sonication by plating serial dilutions. Data were pooled from 3 independent experiments (One-Way-ANOVA; *: p<0.05). FIG. 5B presents bacterial attachment to intravenous catheters that had been incubated in PBS, P1 or sP1 and implanted subcutaneously on the dorsal flanks of C57Bl/6 mice. 72 hrs after catheter inoculation with 5×10^5 CFU S. aureus SA113 the catheters were removed and the attached bacteria were quantified by plating serial dilutions. CFU data were pooled from 3 independent experiments (One-Way-ANOVA with Tukey's post-test; **: p<0.01). […] S. aureus are indicated by black triangles, biofilm matrix are indicated by empty triangles.
Biofilm assays were performed as described^38. Briefly, planktonic overnight cultures of S. aureus were diluted in glucose-supplemented tryptic soy broth or brain-heart-infusion broth (1% glucose; TSB/G or BHI/G) to OD600=0.015 and distributed into 96 well plates (Corning, NC). […] The dye was then dissolved in 33% acetid acid and quantified at OD415 nm using a spectrophotometer (BioTek, VT). […] Bacterial titers were quantified by plating serial dilutions on agar plates and were calculated per as CFU per catheter.

Serratia marcescens = test: Oral infection of iafgp-expressing fruit flies; assay type: in vivo, D. melanogaster
Source text: (§2) A 0.6 μm tungsten needle was dipped into a 1:10 diluted stationary culture of L. monocytogenes and flies were pricked in the right lateral side of the thorax. Fly survival was monitored visually over the course of infection. Uninfected controls (n.i.; n=40) were pricked with a needle dipped into PBS. Data were pooled from 2 independent experiments (Log-rank test; p<0.005). […] Groups of 20-25 flies were transferred into vials containing only a piece of absorbing tissue. Stationary bacterial cultures, resuspended in 4% sucrose and diluted 2-fold were used to soak the paper, controls received only sucrose solution. Every 3 days the flies were transferred into new vials with freshly soaked tissue, and bacterial survival was measured. […] Uninfected controls (n.i.; n=40) were housed in vials with 4% sucrose. Data were pooled from 2 independent experiments (Log-rank test; p<0.001/p<0.001).

Pseudomonas entomophila = test: Oral infection of iafgp-expressing fruit flies; assay type: in vivo, D. melanogaster
Source text: as §2

polymicrobial sepsis = test: Cecal ligation and puncture (polymicrobial sepsis) in iafgp-transgenic mice; assay type: in vivo
Source text: Iafgp was constitutively expressed under control of the chicken β-actin promoter in an iafgp-transgenic mouse line. The promoter region was excised from pβAct-CAT 9 (ATCC, VA) using XhoI and HindIII and subcloned into the pEGFP-1 vector (Clontech, CA). EGFP was removed from pβAct-EGFP-1 by digestion with BamHI and NotI resulting in pβAct-1. Iafgp was then PCR-amplified using oligomers iafgp BamHI F and iafgp NotI R, introducing the corresponding restriction sites. The PCR fragment was digested and cloned into linearized pβAct-1, resulting in pβAct-iafgp. For microinjection, the transgene fragment containing the β-actin promoter and iafgp gene was excised from pβAct-iafgp by digestion with XhoI and AflII restriction enzymes and gel purified. Microinjection was performed in […] (C57BL/6×C3H) and mice were genotyped by PCR analysis of tail biopsies using IAFP4qRTF and IAFP4qRTR. mRNA expression of iafgp was confirmed in multiple tissues using the same primers for qRT-PCR. Transgenic iafgp-expressing mice were backcrossed for 8 generations to C57Bl/6 mice (Charles River, Mass.). Heterozygous experimental mice of 6-12 weeks were age- and sex-matched with wild-type littermates and wild-type C57Bl/6 as control. All mice were housed at 20-22° C. with water and food ad libitum. Animal handling was performed according to protocols approved by the Yale animal care and use committee.
as §1, with “incision. Seventy-five percent of the cecum was ligated and punctured through and through with a 21G hypodermic needle.” for “incision.”

Listeria monocytogenes = test: Needle prick infection of iafgp-expressing fruit flies; assay type: in vivo, D. melanogaster
Source text: as §2

S. aureus SA113 [5] = test: S. aureus microinjection challenge of iafgp-expressing fruit flies; assay type: in vivo, D. melanogaster
Method: FIGS. 3A-3E present transgenic expression of iafgp in fruit flies and susceptibility of transgenic flies to S. aureus challenge in vivo. […] Survival data were pooled from 6 independent experiments (Log-rank test; p<0.001). […] Bacterial colonization of individual flies was determined by plating serial dilutions. Data was pooled from 3 independent experiments (One-Way-ANOVA with Tukey's post-test; ***: p<0.001; **: p<0.01; *: p<0.05). FIG. 3C presents PNAG production in iafgp-transgenic and control flies challenged with S. aureus SA113. PNAG levels of pools of 5 flies were assessed at different time points by immunoblot. Average signal intensities of 3 independent experiments±SEM with representative immunoblot images below are shown (Two-Way-ANOVA with Sidak's post test;[…]). FIG. 3D presents PNAG production in iafgp-transgenic and control flies challenged with S. aureus SA113. Paraffin sections of whole flies were stained for bacteria and PNAG. Black triangles point to bacteria, empty triangles indicate PNAG staining. […] Survival data were pooled from 4 independent experiments (Log-rank test; not significant).
Iafgp-expressing and mCherry-expressing flies were generated as described^13. D. melanogaster flies were maintained using standard procedures^39. The fly colony was sustained at 21-23° C. Following infection, flies were incubated at 29° C. to increase UAS-mediated transgene expression. Five to 9 day old females were used for experiments. Twenty to 30 flies per vial were infected by microinjection as reviewed in^40 and survival was monitored. Microinjection was performed into the thorax below the wing using a Nanojet microinjector (Drummond Scientific, PA). Bacteria in stationary growth phase were diluted in PBS to OD600=0.01 or OD600=0.1 and 9.2 nl were injected, corresponding to an infectious dose of 50-100 to 500-1000 CFU per fly respectively. For CFU analysis individual flies were homogenized in […] using a bullet blender (Nextadvance, NY) and steel beads. Serial dilutions were plated on brain-heart-infusion agar plates and incubated at 37° C. overnight. Endogenous fly bacteria only grew to pinprick-size overnight, allowing visual distinction of the fast-growing bacteria used for infection (data not shown). mRNA was isolated from individual flies homogenized in […] using RNAeasy kit (Qiagen, Hilden, Germany). Following DNAse digestion with Turbo DNA-free Kit (Ambion/Life Technologies, NY) RNA was reverse-transcribed with iScript cDNA synthesis kit (BioRad, CA) and gene expression was quantified by qRT-PCR using iQ SYBR Green Supermix (BioRad, CA).

S. aureus USA300 JE2 = test: Intranasal MRSA challenge of iafgp-transgenic mice; assay type: in vivo; settings: iafgp-transgenic mice vs controls
Method: Iafgp-expressing mice were infected with USA300 JE2. 1.2×10^8 CFU logarithmic growth phase bacteria per mouse were applied intranasally in 50 μl PBS and murine survival was monitored.

[6] = iafgp-expressing flies vs controls

AAAAATATAAARRAAAAPTTAKTT [sP1, P2 randomized, soluble, negative control]
bacterial density/viability at OD600 after 24 h static incubation (S. aureus [1]): Neither proteins nor peptides affected bacterial growth

PARKARAATPATPATAATPATAAT (listed as Ixodes scapularis) [P0]
anti-biofilm activity (S. aureus [2]): anti-biofilm activity has been identified

PARKARAATAATAATAATAATAAT [P1]
toxicity in vivo [3]: no signs of toxicity

B1: IAFGP: Ixodes scapularis anti-freeze glycoprotein, 251 amino acids, SEQ ID NO: 3; also expressed transgenically in flies and mice (protein, listed as Ixodes scapularis)
chain: MTTLLRLTILIVAVAGVLGSSKRAARAATPATAATPATPATAATPAIAATPATAATPATAATPARKARAATPATPATPATAATPATAATPARKARAATAATPATPATAATPARKARAATPATPATAATPATAATPARKARAATPATPATAATPATAATPARKARAATPATPATAATPATAATPARKARAATPATPATAATAATPARKARAATAATPATPATAATPARKARAATPATAATAATPATAATAAA
bacterial attachment / biofilm formation on intravenous catheters in vitro (S. aureus SA113 [4]): altered bacterial attachment; also recorded: reduced biofilm formation
lowering of catheter-associated bacteria in comparison to untreated controls (S. aureus SA113 [4]; catheters incubated in protein or peptide solution, then S. aureus suspension): 9 fold
fly survival after S. marcescens infection (Serratia marcescens): increased fly survival
fly survival after P. entomophila infection (Pseudomonas entomophila): increased fly survival
general health and activity (disease score) (polymicrobial sepsis; 24-36 h after surgery, transgenic vs control mice): significantly better general health and activity
extended (average) survival compared to controls after CLP (polymicrobial sepsis; iafgp-expressing mice): 40% and 35%
hypothermia and serum cytokine release of MCP-1, TNF-α, IL6 and IL12p40 (polymicrobial sepsis; iafgp-expressing mice vs controls): delayed
fly survival after L. monocytogenes infection (Listeria monocytogenes): increased fly survival
pathogen titers in flies over the course of infection (S. aureus SA113 [5]; iafgp-expressing flies): remained stable over the course of infection
PNAG quantity during S. aureus infection of flies (S. aureus SA113 [5]; [6]): reduced
fly survival after S. aureus microinjection (S. aureus SA113 [5]; [6]): enhanced survival
effect of IAFGP on flies challenged with PNAG-deficient S. aureus ΔicaADBC mutant (S. aureus SA113 [5]; ΔicaADBC mutant): completely abrogated
survival after intranasal MRSA challenge (S. aureus USA300 JE2): increased survival; also recorded: enhanced survival
